Results as given in patent US6984380B1, “Treatment of diseases involving faulty MHC class I antigen complex presentation” (priority 1991, dated 2006).
Where no end group is shown, it is not given here.

Columns and labels:
[1] = molecular target: T1, H-2K^d class I molecule on NOD splenocytes (Mus musculus, UniProt P01902); format: cell-based
T1 construct: Female NOD splenocytes were cultured with a K^d allele-specific peptide in an attempt to load the empty peptide groove of this class I molecule; endogenous in cells; host or cells: primary splenocytes (macrophage/monocyte and lymphocyte gates) from female NOD mice and control B10.D2 (R103) mice
T1 sequence (P01902 22-368): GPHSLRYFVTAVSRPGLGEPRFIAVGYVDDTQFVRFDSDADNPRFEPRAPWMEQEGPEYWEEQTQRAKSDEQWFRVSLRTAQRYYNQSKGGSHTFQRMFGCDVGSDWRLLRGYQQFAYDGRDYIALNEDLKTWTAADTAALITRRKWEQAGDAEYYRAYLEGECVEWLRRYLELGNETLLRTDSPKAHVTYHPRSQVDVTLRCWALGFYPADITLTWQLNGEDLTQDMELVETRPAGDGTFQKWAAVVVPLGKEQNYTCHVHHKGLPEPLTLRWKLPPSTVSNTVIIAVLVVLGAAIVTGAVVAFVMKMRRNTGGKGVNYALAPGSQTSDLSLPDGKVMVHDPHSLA
T1 sequence (P01887 21-119 partner): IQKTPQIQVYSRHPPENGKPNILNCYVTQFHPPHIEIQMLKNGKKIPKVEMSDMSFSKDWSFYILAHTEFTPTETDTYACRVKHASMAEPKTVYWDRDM

Sequence: TYQRTRALV [K^d-specific peptide]
- mean fluorescence attributable to K^d ([1]; control class I-identical B10.D2 (R103) splenocytes, peptide 480 μM, 5 hours at 37° C.): no change in mean fluorescence
- surface expression of K^d (mean fluorescence, FACS) ([1]; female NOD mouse macrophages, peptide 480 μM, 5-hour incubation at 37° C.): stabilized the surface expression of K^d
- dose dependence of restoration and stabilization of K^d expression ([1]; female NOD splenocytes): dose dependent
- optimal peptide concentration for restoration and stabilization of K^d expression ([1]; female NOD splenocytes): greater than 240 μM
- susceptibility to CTL lysis after incubation with peptide (H-2K^d target cells): did restore susceptibility to CTLs
- susceptibility to CTL lysis after prior incubation with peptide (H-2K^d target cells): Neither the susceptibility of control BALB/c targets nor that of NOD male targets to CTL lysis was affected
